Paper doi:10.1101/2023.12.12.571160

Legend:
[1] = target: prefusion-stabilized PRD-0038 S2 subunit trimer (PRD-0038 (clade 3 sarbecovirus)); assay: negative-stain EM
[2] = target: prefusion-stabilized SARS-CoV-1 S2 subunit trimer (SARS-CoV-1); assay: negative-stain EM

| Substance | stoichiometry N [1] | stoichiometry N [2] |
| --- | --- | --- |
| prefusion-stabilized PRD-0038 S2 subunit trimer (domain or fragment) | 3 |  |
| prefusion-stabilized SARS-CoV-1 S2 subunit trimer (domain or fragment) |  | 3 |
